Biological target: HCoV-OC43 Spike antigen (HCoV-OC43) (UniProt P36334)
Assay: SEC-MALS

Substance: HCoV-OC43 Spike antigen (from UniProt P36334 14-1353) (natural protein)
- stoichiometry N: 3

From paper PMC10889886
